The source of these data is patent US20160355576A1.

The target in test [1] is native TTR-L55P (human), P02766. Nature of the test: SPR, antibody captured by anti-human IgG-Fc, TTR 3.2-316 nM, Langmuir 1:1 fit. To be noted: remark: other sources report otherwise. In general terms: Surface plasmon resonance follows binding to a sensor surface in real time, without labels.
The target in test [2] is native TTR-V30M (human), P02766. Described as above. The conditions noted are these: remark: other sources report otherwise.
The target of test [3] is misfolded-aggregated human wild-type TTR (human), P02766. The test is described as above. To be noted: remark: other sources report otherwise.
Test [4] concerns the target misfolded-aggregated recombinant V30M-TTR (human), P02766. Nature of the test: direct ELISA, antigen coated at 10 µg/ml. To be noted: remark: other sources report otherwise. On the technique in general: ELISA stands for enzyme-linked immunosorbent assay.
Test [5] has as its target misfolded-aggregated human wild-type TTR (human), P02766. Description: direct ELISA, antigen coated at 10 µg/ml. To be noted: remark: other sources report otherwise.
Test [6] concerns the target human wild-type TTR protein in native conformation (human) (UniProt P02766). Description: SPR, antibody captured by anti-human IgG-Fc, TTR 3.2-316 nM, Langmuir 1:1 fit.

B1: NI-301.35G11 (antibody, V domains shown)
VH: EVQLVESGGGLVQPGGSLRLSCVASGFTFSSYAMSWVRQVPGKGLEWVSSISGSGDTTKYTDSVKGRFTISRDNSKNTVFLQMSSLRAEDTALYYCVKDGSGRIDPFALWGQGTMVTVSS
VL: EIVMTQSPLSLPVTLGQPASISCRSSRSLVYSDGNIYLNWFQQRPGQSPRRLIYKVSNRDSGVPDRFSGSGSDTDFTLRISRVEAEDVGVYYCMQGTHWPRTFGQGTKVEIK
As to B1, the Kd in test [1] is greater than 100 nM; in test [2] it was 33 nM; in test [3] it was 12 nM; in test [6], greater than 316 nM. Moreover, the results for the koff in test [2] and in test [3] were 0.00024 s⁻¹ and 0.00027 s⁻¹, respectively. Besides, the on-rate constant (kon) in test [2] was 7400 M⁻¹ s⁻¹; in test [3], 23000 M⁻¹ s⁻¹. The half-maximal effective concentration (EC50) in test [4] was 5 nM; in test [5], 3.9 nM.

Broadly, the Kd is the concentration at which binding is half-saturated. Low readings indicate tighter binding, high ones weaker binding. A word on the koff: it is a measure of how fast the partners let go of each other. A lower koff goes with a long-lived complex. The kon is the rate constant with which the complex forms. A word on the EC50: it is the concentration at which the effect is half-maximal.
